By Kd is commonly meant the equilibrium constant for the complex coming apart. As a reminder, the koff is a measure of how fast the partners let go of each other. By kon is commonly meant a measure of how fast the partners come together.

Our source for the Kd, koff and kon values is patent US20170210802A1 (INNATE PHARMA, published 2017).

Test [1] addresses T1, Human NKp46 recombinant proteins (human, UniProt O76036 22-258, limits assumed).
T1 construct: also called recombinant human NKp46
The test can be described thus: SPR (Biacore T100), antibody captured on Protein-A chip, recombinant human NKp46 injected (6.25-400 nM), 1:1 kinetic model. As to the method:
SPR measurements were performed on a Biacore T100 apparatus (Biacore GE Healthcare) at 25° C. In all Biacore experiments HBS-EP+(Biacore GE Healthcare) and NaOH 10 mM served as running buffer and regeneration buffer respectively. Sensorgrams were analyzed with Biacore T100 Evaluation software. Protein-A was purchase from (GE Healthcare). Human NKp46 recombinant proteins were cloned, produced and purified at Innate Pharma.
Protein-A proteins were immobilized covalently to carboxyl groups in the dextran layer on a Sensor Chip CM5. The chip surface was activated with EDC/NHS (N-ethyl-N′-(3-dimethylaminopropyl) carbodiimidehydrochloride and N-hydroxysuccinimide (Biacore GE Healthcare)). Protein-A was diluted to 10 μg/ml in coupling buffer (10 mM acetate, pH 5.6) and injected until the appropriate immobilization level was reached (i.e. 2000 RU). Deactivation of the remaining activated groups was performed using 100 mM ethanolamine pH 8 (Biacore GE Healthcare).
Monovalent affinity study was done following a regular Capture-Kinetic protocol recommended by the manufacturer (Biacore GE Healthcare kinetic wizard). Seven serial dilutions of human NKp46 recombinant proteins, ranging from 6.25 to 400 nM were sequentially injected over the captured Bi-Specific antibodies and allowed to dissociate for 10 min before regeneration. The entire sensorgram sets were fitted using the 1:1 kinetic binding model.
(In general: In SPR one partner is held on a chip, and binding of the other changes the refractive index at the surface.)

In test [2] the target is T2, human FcRn (recombinant, Example 10) (human, UniProt P55899 24-297; P61769 21-119, limits assumed).
T2 construct: also called recombinant FcRn proteins
T2 sequence (P55899 24-297 limits assumed, form in doubt, chain 1 of 2): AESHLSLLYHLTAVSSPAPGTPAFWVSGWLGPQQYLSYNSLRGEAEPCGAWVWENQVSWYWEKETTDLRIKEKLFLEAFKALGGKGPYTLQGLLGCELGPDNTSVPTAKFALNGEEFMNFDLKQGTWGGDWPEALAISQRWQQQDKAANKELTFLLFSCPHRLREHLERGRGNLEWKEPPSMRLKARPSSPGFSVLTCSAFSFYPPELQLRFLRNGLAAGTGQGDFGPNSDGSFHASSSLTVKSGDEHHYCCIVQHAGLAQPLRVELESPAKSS
T2 sequence (P61769 21-119 limits assumed, form in doubt, chain 2 of 2): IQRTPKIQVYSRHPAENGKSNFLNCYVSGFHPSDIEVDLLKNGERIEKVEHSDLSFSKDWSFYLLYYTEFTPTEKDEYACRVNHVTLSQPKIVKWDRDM
The test can be described thus: SPR, recombinant FcRn immobilised on CM5, SCK/Two state reaction.

T1 sequence (O76036 22-258 limits assumed): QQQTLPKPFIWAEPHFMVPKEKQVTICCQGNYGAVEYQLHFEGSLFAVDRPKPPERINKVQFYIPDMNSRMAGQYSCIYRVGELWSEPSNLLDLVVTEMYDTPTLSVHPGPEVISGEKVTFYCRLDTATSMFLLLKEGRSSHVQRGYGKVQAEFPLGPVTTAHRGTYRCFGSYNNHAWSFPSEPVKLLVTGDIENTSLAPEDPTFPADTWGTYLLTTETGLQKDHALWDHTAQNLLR

B1: CD19-F5-NKp46-3 (bispecific antibody, human IgG1, kappa)
chain 1: not shown
chain 2: not shown
chain 3: DIVMTQSPATLSVTPGDRVSLSCRASQSISDYLHWYQQKSHESPRLLIKYASQSISGIPSRFSGSGSGSDFTLSINSVEPEDVGVYYCQNGHSFPLTFGAGTKLELKASTKGPSVFPLAPSSKSTSGGTAALGCLVKDYFPEPVTVSWNSGALTSGVHTFPAVLQSSGLYSLSSVVTVPSSSLGTQTYICNVNHKPSNTKVDKRVEPKSCDKTH
notes: Heterotrimer with dimeric Fc domain; also called Format 5 (F5)
B1: in test [1], the Kd is 67 nM, the koff turned out to be 0.0051 s⁻¹ and the association rate constant (kon) was 75600 M⁻¹ s⁻¹. The Kd in test [2] is 2.6 nM.

B2: CD19-F6-NKp46-3 (bispecific antibody, human IgG1, kappa)
chain 1: not shown
chain 2: not shown
chain 3: B1 chain 3
notes: also called Format 6 (F6)
As for B2, in test [1], the Kd came to 63 nM, the koff came to 0.00503 s⁻¹ and the kon was determined as 79300 M⁻¹ s⁻¹. Besides, the Kd in test [2] amounted to 6 nM.
